Laboratory results published in US20260258125A1 (NONA BIOSCIENCES SUZHOU, published 2026).

Tests used:
[1] = target: T1, human CEACAM6 on 293T cells (293T-huCEACAM6 cells) (human, UniProt P40199 35-320); test: cell-based or functional assay
T1 sequence (looked up): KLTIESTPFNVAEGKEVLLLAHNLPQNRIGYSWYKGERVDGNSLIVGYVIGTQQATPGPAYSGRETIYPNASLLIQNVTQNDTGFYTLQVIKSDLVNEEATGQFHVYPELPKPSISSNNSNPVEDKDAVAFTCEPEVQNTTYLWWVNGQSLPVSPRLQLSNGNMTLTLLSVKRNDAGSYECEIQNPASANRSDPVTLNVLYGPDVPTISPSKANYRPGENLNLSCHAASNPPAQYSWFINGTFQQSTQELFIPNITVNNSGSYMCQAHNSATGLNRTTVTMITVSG

[2] = target: T2, recombinant human CEACAM6 Fc-tag protein (human, UniProt P40199 35-320, limits assumed); test: Octet (BLI), antibody on AHC sensor, antigen in solution
T2 construct: also called huCEACAM6 (Octet); not shown: Fc tag
T2 sequence (looked up): T1 sequence (looked up)
Protocol: Binding kinetics of recombinant anti-CEACAM5/6 antibodies to CEACAM5 and CEACAM6 were analyzed by Octet. In Octet analysis, recombinant human CEACAM5 Fc-tag protein (#Uniprot P06731) or CEACAM6 Fc-tag protein (Uniprot P40199) was serially diluted with 1×kinetic buffer (Fortebio). Anti-CEACAM5/6 dual-binding antibodies were diluted to 5 μg/mL. Then diluted antibodies, antigen and regeneration buffer (10 mM glycine pH 1.75) were added to 96-well plates (Greiner). Rate constants for association and dissociation were measured using AHC sensor (Fortebio). The sensor surface was regenerated after each binding experiment with regeneration buffer. The traces were processed using ForteBio Data Analysis Software (version 8.0, Pall ForteBio, CA, USA).

[3] = target: T3, cynomolgus CEACAM5 on CHO-K1 cells (CHOK1-cyno CEACAM5 cells) (cynomolgus monkey); test: flow cytometry on CHOK1-cyno CEACAM5 cells
T3 construct: whole, on cells; also called CHOK1-cynoCECAM5
Protocol: (§1) Binding of recombinant anti-CEACAM5/6 dual-binding antibodies against human or cynomolgus CEACAM5 or CEACAM6 stable cells were detected by flow cytometry. […] Anti-CEACAM5/6 dual-binding antibodies were incubated with the stable cell lines. Anti-CEACAM5/6 dual-binding antibodies were serially diluted in staining buffer (PBS containing 2% FBS). 50 μL of diluted antibody solution was added to 50 μL of cell suspension containing 1-2×10⁵ cells and incubated at 4° C. for 1 hour. […] After 1-hour incubation at 4° C., cells were washed twice and run on a flow cytometer. […] The results were shown in FIGS. 8-10 and Tables 6 below.

[4] = target: T1, human CEACAM6 on 293T cells …; test: flow cytometry on 293T-huCEACAM6 cells
Protocol: as §1

[5] = target: T4, human CEACAM8 protein (human, UniProt P31997 35-320); test: ELISA, antigen coated on plate
T4 construct: Bought protein; also called huCEACAM8
T4 sequence (looked up): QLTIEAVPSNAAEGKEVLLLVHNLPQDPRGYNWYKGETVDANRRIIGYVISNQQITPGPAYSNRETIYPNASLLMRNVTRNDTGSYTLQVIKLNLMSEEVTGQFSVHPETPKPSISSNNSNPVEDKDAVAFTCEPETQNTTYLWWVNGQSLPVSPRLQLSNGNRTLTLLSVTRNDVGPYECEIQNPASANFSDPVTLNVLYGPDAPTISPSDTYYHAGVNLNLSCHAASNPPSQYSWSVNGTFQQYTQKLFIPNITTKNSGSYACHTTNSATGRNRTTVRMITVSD
Text: (§2) Binding of recombinant anti-CEACAM5/6 dual-binding monoclonal antibodies against human and cynomolgus CEACAM5, and human CEACAM6 (Uniprot P40199), human CEACAM 1, 3 (NP_001806.2, Sino Biological 11933-H08H) and 8 (NP_001807.2, Acro Bio CE8-H5224) were detected by ELISA. Anti-CEACAM5/6 dual-antibodies were serially diluted in staining buffer (PBS containing 2% FBS). […] ELISA was used to test the binding between antibody containing supernatant or purified antibodies and the antigen. Briefly, the antigens were coated on a 96-well high binding plate overnight at 4° C. The plate was washed with PBST three times, incubated with blocking buffer (2% Bovine Serum Albumin) for one hour at 37° C., washed with PBST three times and incubated with antibody containing supernatant or purified antibodies at desired dilutions or concentrations for one hour at 37° C. A secondary antibody, anti-human Fc-HRP (Jackson Laboratory, 109-035-097) was used for detection of the targeted antibody. TMB and stopping solution were used for detection of HRP signal. The HRP signal was read on a SPECTRAMAX plate reader.

[6] = target: T5, human CEACAM1 protein (human, UniProt P13688 35-428); test: ELISA, antigen coated on plate
T5 construct: also called huCEACAM1
T5 sequence (looked up): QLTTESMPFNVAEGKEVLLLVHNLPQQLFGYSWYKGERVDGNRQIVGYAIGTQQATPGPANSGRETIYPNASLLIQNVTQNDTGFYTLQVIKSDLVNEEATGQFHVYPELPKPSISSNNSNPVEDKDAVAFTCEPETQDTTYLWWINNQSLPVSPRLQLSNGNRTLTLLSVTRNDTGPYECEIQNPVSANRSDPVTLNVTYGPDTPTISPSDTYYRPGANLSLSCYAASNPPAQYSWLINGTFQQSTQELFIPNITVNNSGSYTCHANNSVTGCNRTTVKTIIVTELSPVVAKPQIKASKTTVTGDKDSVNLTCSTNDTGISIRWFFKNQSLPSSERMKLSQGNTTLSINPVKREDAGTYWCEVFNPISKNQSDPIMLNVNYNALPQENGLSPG
Text: as §2

[7] = target: T6, human CEACAM3 protein (human, UniProt P40198 35-155); test: ELISA, antigen coated on plate
T6 construct: Bought protein; also called huCEACAM3
T6 sequence (looked up): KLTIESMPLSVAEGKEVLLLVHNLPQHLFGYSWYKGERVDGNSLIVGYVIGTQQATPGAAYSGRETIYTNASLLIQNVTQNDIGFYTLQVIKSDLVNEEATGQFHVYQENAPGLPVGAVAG
Text: as §2

[8] = target: T7, cyno CEACAM5 protein (cynomolgus monkey); test: ELISA, antigen coated on plate
T7 construct: also called cynomolgus CEACAM5
Text: as §2

[9] = target: T8, human CEACAM6 protein (human, UniProt P40199 35-320); test: ELISA, antigen coated on plate
T8 construct: also called huCEACAM6
T8 sequence (looked up): T1 sequence (looked up)
Text: as §2

[10] = target: T1, human CEACAM6 on 293T cells …; test: flow cytometry on 293T-huCEACAM6 cells, Alexa Fluor 488 anti-human IgG, MFI
Protocol: as §1

[11] = target: T1, human CEACAM6 on 293T cells …; test: flow cytometry on 293T-huCEACAM6 cells with against without 100 nM soluble CEACAM6
[12] = target: T9, human CEACAM5 protein (human, UniProt P06731 35-685); test: ELISA, antigen coated on plate
T9 construct: also called huCEACAM5
T9 sequence (looked up): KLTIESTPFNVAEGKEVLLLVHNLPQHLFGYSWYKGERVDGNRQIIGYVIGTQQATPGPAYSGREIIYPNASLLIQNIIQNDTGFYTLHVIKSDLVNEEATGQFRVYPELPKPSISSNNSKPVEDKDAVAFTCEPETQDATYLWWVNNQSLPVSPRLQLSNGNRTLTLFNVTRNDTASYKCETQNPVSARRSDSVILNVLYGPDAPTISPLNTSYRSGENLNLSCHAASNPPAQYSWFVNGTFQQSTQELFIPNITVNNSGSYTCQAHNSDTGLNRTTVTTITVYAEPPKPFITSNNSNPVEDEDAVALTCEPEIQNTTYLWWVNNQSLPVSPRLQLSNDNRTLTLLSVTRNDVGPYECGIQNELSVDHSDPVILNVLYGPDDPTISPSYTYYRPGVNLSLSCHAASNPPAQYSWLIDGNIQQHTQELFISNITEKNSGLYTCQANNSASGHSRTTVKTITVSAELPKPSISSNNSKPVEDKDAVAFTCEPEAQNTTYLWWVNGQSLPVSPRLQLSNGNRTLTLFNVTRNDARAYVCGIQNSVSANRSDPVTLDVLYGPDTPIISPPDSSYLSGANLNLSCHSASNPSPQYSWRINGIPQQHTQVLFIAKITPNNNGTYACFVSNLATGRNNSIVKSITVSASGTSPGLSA
Text: as §2

B1: PR303561 (Tusamitamab) (antibody, human IgG1, kappa, V domains shown)
VH: EVQLQESGPGLVKPGGSLSLSCAASGFVFSSYDMSWVRQTPERGLEWVAYISSGGGITYAPSTVKGRFTVSRDNAKNTLYLQMNSLTSEDTAVYYCAAHYFGSSGPFAYWGQGTLVTVSS
VL: DIQMTQSPASLSASVGDRVTITCRASENIFSYLAWYQQKPGKSPKLLVYNTRTLAEGVPSRFSGSGSGTDFSLTISSLQPEDFATYYCQHHYGTPFTFGSGTKLEIKR
notes: also called PR003561; SAR408377
[1]
  Internalization of pHAb-dye-labelled antibody, MFI (37° C.-4° C.)/DAR: 1260
[2]
  binding result: no binding
[3]
  EC50: 33400 pM
[4]
  binding result: no binding
[5]
  binding result: no binding
[6]
  binding result: no binding
[7]
  binding result: no binding
[8]
  EC50: 10 pM
[9]
  binding result: no binding

B2: PR303563 (Tinurilimab) (antibody, human IgG2, kappa, V domains shown)
VH: QVTLRESGPALVKPTQTLTLTCTFSGFSLSTYGIGVGWIRQPPGKALEWLAHIWWNDNKYYSTSLKTRLTISKDTSKNQVVLTMTNMDPVDTATYYCARISLPYFDYWGQGTTLTVSS
VL: DIQLTQSPSFLSASVGDRVTITCKASQNVGTAVAWYQQKPGKAPKLLIYSASNRYTGVPSRFSGSGSGTEFTLTISSLQPEDFATYYCQQYSSYPLTFGGGTKVEIKR
notes: also called BAY-1834942
[10]
  EC50 (read off the curve): ~600 pM
[11]
  fold change of EC50 at the presence of 100 nM soluble protein: 7.3 fold
[12]
  binding result: no binding
[5]
  binding result: no binding
[6]
  binding result: no binding
[7]
  binding result: no binding
[9]
  EC50: 10 pM
